The stoichiometry N is the number of molecules, sites or subunits per partner or assembly.

The data set deals with the molecule itself. As to the kind of experiment: cryo-EM structure.

B1: Rice OsPHT1;11 (OsPT11) (natural protein)
chain: MADADGGSNLAVLDALDSARTQMYHMKAIVIAGMGFFTDAYDLFCISTVSKLLGRLYYQPDGSTDSKPGALSKTANNMVIGVALVGTLMGQLVFGYFGDKLGRKRVYGVTLILMAACAIGSGLSFGSSRKAVIGTLCFFRFWLGFGIGGDYPLSATIMSEYSNKKTRGAFIAAVFAMQGVGIIFAGLVSMIVSSIFLTYNKAPSYKGNHDLSRQMPAADYVWRIVLMIGAFPALATFYWRMKMPETARYTAIIDGNAKQAANDMQKVLSIEIEAEQEKLAKFNAANNYPLLSMEFARRHGLHLIGTTTTWFLLDIAFYSQNLTQKDIFPAMGLISGAAEVNALTEMFQISKASFLVALLGTFPGYWVTVALIDKMGRYMIQLIGFFMMSMFMLAMGILYDYLKTHHFLFGLLYALTFFFANFGPNSTTFVLPAELFPTRVRSTCHAISAAAGKAGAIVAAFGIQKLTYNSQVKSIKKALIILSITNMLGFFFTFLVPETMGRSLEEISGEDGNTGAGGGGAPAAANAGVGVSASDVSRDEKFPASSTEWQTSMHA
Regarding B1, the “stoichiometry N” value was determined as 2.
